In US20150147274A1 (CANCER RESEARCH TECHNOLOGY, published 2015):
Substitutions are numbered along the chain they refer to.

B1: 107_B12 (scFv)
scFv: QMQLVQSGAEVKKPGAPVKVSCKVSGYTFTDYYMHWVQQAPGKGLEWMGLVDPEDGETIYAEKFQGRVTITADTSTDTAYMELSSLRSEDTAVYYCATDATTPYWGMTAWGQGTLVTVSSLEGGGGSGGGGSGGGASDIQMTQSPSSLSASVGDRVTITCQASQDISNYLNWYQQKPGRAPKVLIYDASNLETGVPSRFSGSGSGTEFTLTISNLRPDDFATYYCQQGDSFPLTFGGGTKVEIK
notes: not shown: 6xHis/tri-FLAG tags
B2: 108_D1 (scFv)
scFv: B1 scFv with G106T, M107P, T108W, A109K
notes: as for B1
B3: 108_D12 (scFv)
scFv: B1 scFv with G106T, M107P, T108Y, A109V
notes: as for B1
B4: 108_D4 (scFv)
scFv: B1 scFv with T108S, A109G
notes: as for B1
B5: 108_D11 (scFv)
scFv: B1 scFv with M107A, T108A
notes: as for B1
B6: 108_D9 (scFv)
scFv: B1 scFv with G106Y, M107P, T108Y, A109V
notes: as for B1
B7: 108_C11 (scFv)
scFv: B1 scFv with G106F, M107P, T108I, A109I
notes: as for B1
B8: 107_C5 (scFv)
scFv: B1 scFv with G106Y, M107P, T108I, A109V
notes: as for B1
B9: 108_D7 (scFv)
scFv: B1 scFv with T108D, A109M
notes: as for B1
B10: 108_D10 (scFv)
scFv: B1 scFv with T108S, A109H
notes: as for B1
B11: 107_C2 (scFv)
scFv: B1 scFv with T108V, A109K
notes: as for B1
B12: 108_C8 (scFv)
scFv: B1 scFv with G106F, M107P, T108Y, A109I
notes: as for B1
B13: 108_D3 (scFv)
scFv: B1 scFv with G106F, M107P, T108Y, A109V
notes: as for B1
B14: 108_E1 (scFv)
scFv: B1 scFv with G106F, M107P, T108L, A109V
notes: as for B1
B15: 108_E4 (scFv)
scFv: B1 scFv with T108I, A109W
notes: as for B1
B16: 107_C1 (scFv)
scFv: B1 scFv with T108S, A109M
notes: as for B1
B17: 107_C4 (scFv)
scFv: B1 scFv with G106S, M107P, T108W, A109M
notes: as for B1
B18: 108_C12 (scFv)
scFv: B1 scFv with T108A, A109S
notes: as for B1
B19: 108_D5 (scFv)
scFv: B1 scFv with G106S, M107P, T108H, A109T
notes: as for B1
B20: 108 E2 (scFv)
scFv: B1 scFv with G106T, M107P, T108W, A109V
notes: as for B1
B21: 107_C6 (scFv)
scFv: B1 scFv with T108S, A109V
notes: as for B1
B22: 108_D2 (scFv)
scFv: B1 scFv with G106A, M107P, T108W, A109V
notes: as for B1

The binders below were run against T1, MET928 (cMET protein derived from construct 25-928) (human, UniProt P08581 25-928) (assay: ELISA, soluble scFv).
T1 construct: MET ectodomain, residues 1-24 are the leader; produced in Lec 8 cells; background text says the ectodomain is furin-cleaved into alpha (25-307) and beta chains; biotinylated form used in selections; also called MET928 extracellular domain; Met extracellular domain
T1 sequence (P08581 25-928): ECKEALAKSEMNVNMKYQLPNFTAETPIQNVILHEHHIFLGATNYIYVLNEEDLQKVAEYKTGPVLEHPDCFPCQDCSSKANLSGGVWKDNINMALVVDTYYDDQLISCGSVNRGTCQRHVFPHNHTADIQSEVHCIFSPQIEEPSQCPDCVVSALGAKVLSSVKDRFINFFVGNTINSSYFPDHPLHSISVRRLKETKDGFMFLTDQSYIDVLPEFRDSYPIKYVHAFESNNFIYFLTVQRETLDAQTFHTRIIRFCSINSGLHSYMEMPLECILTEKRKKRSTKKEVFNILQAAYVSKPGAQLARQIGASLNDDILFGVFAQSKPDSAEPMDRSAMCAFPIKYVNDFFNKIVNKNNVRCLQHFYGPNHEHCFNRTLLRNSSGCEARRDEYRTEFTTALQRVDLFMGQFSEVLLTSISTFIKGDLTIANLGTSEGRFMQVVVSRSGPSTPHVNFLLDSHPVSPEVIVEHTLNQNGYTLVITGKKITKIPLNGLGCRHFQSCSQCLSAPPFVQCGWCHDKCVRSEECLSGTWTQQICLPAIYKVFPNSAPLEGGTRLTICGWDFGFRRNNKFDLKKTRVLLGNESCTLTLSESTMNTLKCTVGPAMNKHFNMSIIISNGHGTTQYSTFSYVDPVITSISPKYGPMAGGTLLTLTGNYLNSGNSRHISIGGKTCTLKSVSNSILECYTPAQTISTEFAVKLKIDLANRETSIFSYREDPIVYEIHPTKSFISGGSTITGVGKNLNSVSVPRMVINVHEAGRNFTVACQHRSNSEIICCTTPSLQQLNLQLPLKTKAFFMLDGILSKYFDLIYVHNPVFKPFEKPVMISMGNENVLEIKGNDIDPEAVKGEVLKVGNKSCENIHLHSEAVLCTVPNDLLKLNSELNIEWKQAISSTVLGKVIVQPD
B1: binds. B2: binds. B3: binds. B4: binds. B5: binds. B6: binds. B7: binds. B8: binds. B9: binds. B10: binds. B11: binds. B12: binds. B13: binds. B14: binds. B15: binds. B16: binds. B17: binds. B18: binds. B19: binds. B20: binds. B21: binds. B22: binds.
